This note sets out measurements from patent US20030099644A1.

This experiment addresses CD40 on murine bone cells (MLO-Y4 osteocyte cell line, primary osteoblasts, MC3T3, OCT-1 and 2T3 osteoblast cell lines) (mouse) (UniProt P27512). As to the kind of experiment: cell-based or functional assay.
UniProt P27512, sequence (P27512 20-289): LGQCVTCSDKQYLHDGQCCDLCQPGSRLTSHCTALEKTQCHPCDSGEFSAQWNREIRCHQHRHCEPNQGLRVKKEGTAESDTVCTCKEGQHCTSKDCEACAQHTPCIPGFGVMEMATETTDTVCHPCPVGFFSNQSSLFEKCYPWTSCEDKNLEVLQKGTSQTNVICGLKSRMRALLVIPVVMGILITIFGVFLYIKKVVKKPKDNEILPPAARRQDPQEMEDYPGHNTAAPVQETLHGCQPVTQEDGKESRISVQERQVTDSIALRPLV

As to Soluble, trimeric CD40L (ligand), the percent positive cells, Annexin V (MLO-Y4 cells, CD40L alone) (percent positive cells) was determined as 11.5; the percent positive cells, Annexin V (MLO-Y4 cells, Dex + CD40L) (percent positive cells) is 13.7; the percent positive cells, Annexin V (MLO-Y4 cells, TNF + CD40L) (percent positive cells) came to 13.9; the percent positive cells, GFP (MLO-Y4 cells, CD40L alone) (percent positive cells) is 8.7. The percent positive cells, GFP (MLO-Y4 cells, Dex + CD40L) (percent positive cells) is 9.9; the percent positive cells, GFP (MLO-Y4 cells, Etoposide + CD40L) (percent positive cells) amounted to 8.4; the percent positive cells, GFP (MLO-Y4 cells, TNF + CD40L) (percent positive cells) was 15; the percent positive cells, Trypan Blue (MLO-Y4 cells, CD40L alone) (percent positive cells) was found to be 7.2. Besides, the percent positive cells, Trypan Blue (MLO-Y4 cells, Dex + CD40L) (percent positive cells) amounted to 7.8; the percent positive cells, Trypan Blue (MLO-Y4 cells, Etoposide + CD40L) (percent positive cells) came out at 7.9; the percent positive cells, Trypan Blue (MLO-Y4 cells, TNF + CD40L) (percent positive cells) was determined as 12.9.
